Test [1] deals with tissue factor (TF) antigen (UniProt P13726). Put plainly: SPR (ProteOn XPR36), His-tagged Fab captured on anti-penta His, TF as analyte, 1:1 fit.
Test [2] shares this target. In words: SPR; against wild-type D3H44 Fab. For orientation: In SPR one partner is held on a chip, and binding of the other changes the refractive index at the surface.
The target is the same in test [3]. Put plainly: SPR (ProteOn), Fab captured on anti-penta His, TF as analyte, 1:1 fit.
For test [4] the target is unchanged. In words: SPR, Fab captured on anti-penta His, TF injected, 1:1 fit.
The target is the same in test [5]. In words: SPR; reference wild-type D3H44 Fab.
Test [6] shares this target. In words: SPR, Fab captured on anti-penta-His, TF as analyte, 1:1 fit.
For test [7] the target is unchanged. Put plainly: SPR, Fab captured by anti-His, TF as analyte.
For test [8] the target is unchanged. Put plainly: SPR (ProteOn), Fab captured on anti-penta-His surface, TF injected, 1:1 fit.
The target is the same in test [9]. In words: SPR (ProteOn), Fab captured on anti-penta-His surface, TF injected; reference wild-type D3H44 Fab.
The target is the same in test [10]. In words: SPR (ProteOn XPR36): His-tagged Fab captured on anti-penta-His surface, TF as analyte, 1:1 fit.

What is called Kd is a measure of binding affinity in units of concentration.

tissue factor (TF) antigen, sequence (P13726 33-251 limits assumed): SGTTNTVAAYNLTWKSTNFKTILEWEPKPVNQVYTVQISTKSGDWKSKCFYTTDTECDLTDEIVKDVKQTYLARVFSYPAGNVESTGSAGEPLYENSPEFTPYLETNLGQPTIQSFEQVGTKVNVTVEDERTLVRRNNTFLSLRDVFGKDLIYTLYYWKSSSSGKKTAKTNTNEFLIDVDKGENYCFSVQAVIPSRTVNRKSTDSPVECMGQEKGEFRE

As to “D3H44 Fab heterodimer, H1 A139C_C233S / L1 F116C_C214S (H1L1 Fab of LCCA Set # 9041)”, the Kd in [1] was 0.14 nM.

Substance “D3H44 Fab heterodimer, H1 F122C_C233S / L1 S121C_C214S (H1L1 Fab of LCCA Set # 9043)” showed a Kd in test [1] of 0.16 nM.

“D3H44 Fab heterodimer, H1 P175C_C233S / L1 S162C_C214S (H1L1 Fab of LCCA Set # 9044)”: in test [1], the Kd is 0.18 nM.

In turn, “D3H44 Fab heterodimer, H1 S186R / L1 Q124E_T180E (H1L1 of LCCA set 9900)” registered a Change in KD with respect to wild type (-(log(KD design) - log(KD wt))) in test [2] of 0.36. The substance further showed a Kd in test [3] of 0.07 nM.

For the substance “D3H44 Fab heterodimer, H L124E_L143E_K145T / L Q124K_V133G_Q160K_S176R”, the Kd in test [4] and in [6] was 0.2 nM each time. Besides, the Change in KD with respect to wild type (-(log(KD design) - log(KD wt))) in test [5] and in [6] was -0.12 in each case.

As to “D3H44 Fab heterodimer, H L124R_D146N_Q179K / L Q124E_V133G_S176D_T178E_T180E”, the Kd in [4] and in test [6] was 0.2 nM throughout. The Change in KD with respect to wild type (-(log(KD design) - log(KD wt))) in test [5] and in [6] was -0.1 throughout.

Turning to “D3H44 Fab heterodimer, H L124R_D146N_Q179K / L V133G_Q160E_S176D_T180E”, in [4], the dissociation constant Kd is 0.17 nM. The Change in KD with respect to wild type (-(log(KD design) - log(KD wt))) in [5] is -0.04.

Turning to “D3H44 Fab heterodimer, H L124R_D146N_Q179K / L V133G_S176D_T178E_T180E”, in test [4], the Kd came out at 0.16 nM. Moreover, the Change in KD with respect to wild type (-(log(KD design) - log(KD wt))) in test [5] is -0.01.

For “D3H44 Fab heterodimer, H L124R_Q179K / L Q124E_V133G_S176D_T178E_T180E”, the Kd in test [4] and in [6] was 0.22 nM in each case. Further, the Change in KD with respect to wild type (-(log(KD design) - log(KD wt))) in test [5] and in test [6] was -0.15 in each case.

In turn, “D3H44 Fab heterodimer, H L124R_Q179K / L V133G_Q160E_S176D_T180E” gave a Kd in test [4] of 0.19 nM. The Change in KD with respect to wild type (-(log(KD design) - log(KD wt))) in test [5] is -0.08.

Substance “D3H44 Fab heterodimer, H L124R_Q179K / L V133G_S176D_T178E_T180E” registered a dissociation constant (Kd) in test [4] of 0.23 nM. This substance gave a Change in KD with respect to wild type (-(log(KD design) - log(KD wt))) in test [5] of -0.16.

Take “D3H44 Fab heterodimer, H L124R_S186K / L Q124E_V133G_S176D_T178D_T180E”: the Kd in [4] and in test [6] was 0.26 nM throughout. Also, the Change in KD with respect to wild type (-(log(KD design) - log(KD wt))) in test [5] and in [6] was -0.23 throughout.

Regarding “D3H44 Fab heterodimer, H L124R_S186K / L V133G_S176D_T178D_T180E”, the Kd in [4] and in test [6] was 0.18 nM throughout. For the same substance, the Change in KD with respect to wild type (-(log(KD design) - log(KD wt))) in [5] and in test [6] was -0.07 in each case.

As for “D3H44 Fab heterodimer, H L124R_S186K / L V133G_S176D_T178E_T180E”, the Kd in test [4] and in test [6] was 0.23 nM in each case. The Change in KD with respect to wild type (-(log(KD design) - log(KD wt))) in [5] and in [6] was -0.17 in each case.

With “D3H44 Fab heterodimer, H L124R_S186R / L Q124E_V133G_S176D_T178D_T180E”, the Kd in test [4] and in test [6] was 0.26 nM in each case. Moreover, the Change in KD with respect to wild type (-(log(KD design) - log(KD wt))) in test [5] and in test [6] was -0.21 each time.

For the substance “D3H44 Fab heterodimer, H L124R_S186R / L V133G_S176D_T178D_T180E”, the equilibrium dissociation constant (Kd) in test [4] and in test [6] was 0.17 nM throughout. In addition, the Change in KD with respect to wild type (-(log(KD design) - log(KD wt))) in test [5] and in [6] was -0.04 throughout.

On to “D3H44 Fab heterodimer, heavy L124E_L143D_K145M / light Q124K_V133G_Q160K_S176R”, for which the Kd in test [7] stood at 0.27 nM. Besides, the Change in KD of h1|1 Fab heterodimer with respect to wild type (-(log(KD design) - log(KD wt))) in [5] is -0.24.

In test [7], “D3H44 Fab heterodimer, heavy L124E_L143D_K145M / light Q124K_V133G_S176R_T178K” gave a Kd of 0.22 nM. Further, in test [5], the Change in KD of h1|1 Fab heterodimer with respect to wild type (-(log(KD design) - log(KD wt))) was -0.15.

Consider “D3H44 Fab heterodimer, heavy L124E_L143D_K145T / light Q124K_V133G_S176R_T178K”, for which the equilibrium dissociation constant (Kd) in [7] came to 0.19 nM. The substance also showed a Change in KD of h1|1 Fab heterodimer with respect to wild type (-(log(KD design) - log(KD wt))) in test [5] of -0.08.

“D3H44 Fab heterodimer, heavy L124E_L143D_K145T / light Q124K_V133G_S176R_T178R” returned a Kd in [7] of 0.16 nM. In test [5], this substance came in with a Change in KD of h1|1 Fab heterodimer with respect to wild type (-(log(KD design) - log(KD wt))) of -0.02.

“D3H44 Fab heterodimer, heavy L124E_L143E_K145M / light Q124K_V133G_Q160K_S176R” gave a Kd in [7] of 0.28 nM. Also, the Change in KD of h1|1 Fab heterodimer with respect to wild type (-(log(KD design) - log(KD wt))) in [5] was -0.26.

In test [7], “D3H44 Fab heterodimer, heavy L124E_L143E_K145M / light Q124K_V133G_S176R_T178K” had a Kd of 0.24 nM. Further, the Change in KD of h1|1 Fab heterodimer with respect to wild type (-(log(KD design) - log(KD wt))) in [5] is -0.19.

“D3H44 Fab heterodimer, heavy L124E_L143E_K145M / light Q124K_V133G_S176R_T178R”: the Kd in [7] stood at 0.31 nM. Besides, the Change in KD of h1|1 Fab heterodimer with respect to wild type (-(log(KD design) - log(KD wt))) in test [5] is -0.29.

Regarding “D3H44 Fab heterodimer, heavy L124E_L143E_K145T / light Q124K_V133G_Q160K_S176R”, the equilibrium dissociation constant (Kd) in [7] came to 0.2 nM. Also, the Change in KD of h1|1 Fab heterodimer with respect to wild type (-(log(KD design) - log(KD wt))) in test [5] was -0.12.

The substance “D3H44 Fab heterodimer, heavy L124R_Q179K / light Q124E_V133G_S176D_T178E_T180E” showed a Kd in test [7] of 0.22 nM. Besides, the Change in KD of h2|2 Fab heterodimer with respect to wild type (-(log(KD design) - log(KD wt))) in test [5] is -0.15.

In turn, “D3H44 Fab heterodimer, heavy L124R_Q179K / light V133G_S176D_T178E_T180E” came in with a dissociation constant Kd in test [7] of 0.23 nM. The Change in KD of h2|2 Fab heterodimer with respect to wild type (-(log(KD design) - log(KD wt))) in test [5] is -0.16.

In turn, “D3H44 Fab heterodimer, heavy L124R_S186K / light Q124E_V133G_S176D_T178D_T180E” came in with a Kd in test [7] of 0.26 nM. In addition, the Change in KD of h2|2 Fab heterodimer with respect to wild type (-(log(KD design) - log(KD wt))) in [5] was -0.23.

In test [7], “D3H44 Fab heterodimer, heavy L124R_S186K / light V133G_S176D_T178D_T180E” yielded a Kd of 0.18 nM. In test [5], this substance yielded a Change in KD of h2|2 Fab heterodimer with respect to wild type (-(log(KD design) - log(KD wt))) of -0.07.

In test [7], “D3H44 Fab heterodimer, heavy L124R_S186R / light Q124E_V133G_S176D_T178D_T180E” displayed a Kd of 0.26 nM. Also, the Change in KD of h2|2 Fab heterodimer with respect to wild type (-(log(KD design) - log(KD wt))) in test [5] was -0.21.

As to “D3H44 Fab heterodimer, heavy L124R_S186R / light V133G_S176D_T178E_T180E”, in [7], the Kd was 0.22 nM. The substance also returned a Change in KD of h2|2 Fab heterodimer with respect to wild type (-(log(KD design) - log(KD wt))) in test [5] of -0.15.

On to “D3H44 H1L1 Fab heterodimer of LCCA Set # 9185 (H1 L124E_L143D_K145M; L1 Q124K_V133G_S176R_T178R)”, for which the Kd in test [8] stood at 0.13 nM. In test [9], the Change in median values of KD of h1l1 Fab heterodimer compared to wild type (-(log(KD design)-log(KD wt))) was determined as 0.09.

Substance “D3H44 H1L1 Fab heterodimer of LCCA Set # 9270 (H1 L124E_L143E_K145M; L1 Q124K_V133G_S176R_T178R)” had a Kd in test [8] of 0.31 nM. In test [9], this substance had a Change in median values of KD of h1l1 Fab heterodimer compared to wild type (-(log(KD design)-log(KD wt))) of -0.29.

On to “D3H44 H1L1 Fab heterodimer of LCCA set 9060 (H1 A139W_L143E_K145T_Q179E; L1 F116A_Q124R_L135V_T178R)”, for which, in [10], the Change in median values of KD of h1|1 Fab heterodimer compared to wild type (-(log(KD design)-log(KD wt))) is 0.04 log units and the Kd worked out at 0.14 nM.

In test [10], “D3H44 H1L1 Fab heterodimer of LCCA set 9066 (H1 F122C_L124E; L1 Q124C_V133G_S176R)” registered a Change in median values of KD of h1|1 Fab heterodimer compared to wild type (-(log(KD design)-log(KD wt))) of -0.04 log units and a Kd of 0.17 nM.

As to “D3H44 H1L1 Fab heterodimer of LCCA set 9082 (H1 K145T_Q179E; L1 S131K)”, in test [10], the Change in median values of KD of h1|1 Fab heterodimer compared to wild type (-(log(KD design)-log(KD wt))) is -0.01 log units and the Kd came to 0.16 nM.

For “D3H44 H1L1 Fab heterodimer of LCCA sets 9101 and 9100 (H1 L124A_Q179K; L1 Q124E_V133W_T180E)”, in test [10], the Change in median values of KD of h1|1 Fab heterodimer compared to wild type (-(log(KD design)-log(KD wt))) turned out to be 0.1 log units and the Kd came to 0.12 nM.

As to “D3H44 H1L1 Fab heterodimer of LCCA sets 9571 and 9572 (H1 L124W_L143F_K145T_Q179E; L1 S131K_V133A_S176T_T178L)”, in [10], the Change in median values of KD of h1|1 Fab heterodimer compared to wild type (-(log(KD design)-log(KD wt))) is -0.21 log units and the Kd was determined as 0.26 nM.

Consider “D3H44 H1L1 Fab heterodimer of LCCA sets 9786 and 9785 (H1 Q179K; L1 Q124E_T178E_T180E)”, for which, in test [10], the Change in median values of KD of h1|1 Fab heterodimer compared to wild type (-(log(KD design)-log(KD wt))) stood at 0.1 log units and the Kd stood at 0.13 nM.

These data come from US11306156.
